Measurements as given in the supplement of paper PMC7125110.
± gives the standard error. For some assays here: Fewer inactive variants are shown than the library holds.

B1: glmS ribozyme (parent)
chain: AUAAAAGCGCCAGAACUACAGAAAUGUAGUUGACGAGGAGGAGGUUUAUCGAAUUUUCGGCGGAUGCCUCCAAA

What was measured:
Settings in all cases: with glucosamine-6-phosphate
glucosamine-6-phosphate [1] = variants of: B1; assay: kcat; higher = faster cleavage; RNA array
Method in brief: (§1)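 kcat and KM were obtained from weighted Michaelis–Menten fits across concentrations of kobs values. Those came from one- or two-exponential decay fits to per-tile medians normalised to baseline and to non-cleaving reference variants. The variants were barcoded ribozymes transcribed in situ by E. coli RNA polymerase on sequenced MiSeq chips and tracked through a hybridised Cy3 probe at 37 °C, with 40 μM to 10 mM glucosamine-6-phosphate in HEPES/KCl/Mg(OAc)2 buffer flowed in.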

glucosamine-6-phosphate [2] = variants of: B1; assay: KM; higher = weaker cofactor use; RNA array
Method in brief: as §1

glucosamine-6-phosphate [3] = variants of: B1; assay: self-cleavage kobs at 640 uM GlcN6P; higher = faster cleavage; RNA array
Method in brief: as §1

glucosamine-6-phosphate [4] = variants of: B1; assay: self-cleavage kobs at 2500 uM GlcN6P; higher = faster cleavage; RNA array
Method in brief: as §1

glucosamine-6-phosphate [5] = variants of: B1; assay: self-cleavage kobs at 10000 uM GlcN6P; higher = faster cleavage; RNA array
Method in brief: as §1

glucosamine-6-phosphate [6] = variants of: B1; assay: self-cleavage kobs at 160 uM GlcN6P; higher = faster cleavage; RNA array
Method in brief: as §1

glucosamine-6-phosphate [7] = variants of: B1; assay: self-cleavage kobs at 40 uM GlcN6P; higher = faster cleavage; RNA array
Method in brief: as §1

Variant | kcat (glucosamine-6-phosphate [1]) [s⁻¹] | KM (glucosamine-6-phosphate [2]) [mM] | self-cleavage kobs at 640 uM GlcN6P (glucosamine-6-phosphate [3]) [s⁻¹] | self-cleavage kobs at 2500 uM GlcN6P (glucosamine-6-phosphate [4]) [s⁻¹] | self-cleavage kobs at 10000 uM GlcN6P (glucosamine-6-phosphate [5]) [s⁻¹] | self-cleavage kobs at 160 uM GlcN6P (glucosamine-6-phosphate [6]) [s⁻¹] | self-cleavage kobs at 40 uM GlcN6P (glucosamine-6-phosphate [7]) [s⁻¹]
AUAAAAGCGCCGGAACUACAGAAAUGUAGUUGACGAGGAGGAGGUUUAUCGAAUUUUCGGCGGAUGUCUCCAAA | 0.000655 ± 3.4e-05 | 3.65 ± 0.31 | 9.59e-05 ± 9.7e-06 | 0.000297 ± 5.2e-05 | 0.000475 ± 4.3e-05 | – | –
AUAAAAGCGCCGGAACUACAGAAAUGUAGUUGACGAGGAGGAGGUUUAUCGAAUUUUCGGCGGAUACCUCCAAA | 0.000586 ± 0.00018 | 3.6 ± 1.7 | 0.000105 ± 1.1e-05 | 0.000195 ± 2.3e-05 | 0.000496 ± 5.7e-05 | 2.09e-05 ± 9.7e-06 | –
AUAAAAGCGCCGGAACUACAGAAAUGUAGUUGACGAGGAGGAGGUUUAUCGAAUUUUCGGCGGAUCCCUCCAAA | 8.51e-05 ± 6.1e-06 | 0.857 ± 0.29 | 4.42e-05 ± 1.9e-05 | 5.86e-05 ± 1.3e-05 | 8.08e-05 ± 1.3e-05 | – | –
AUAAAAGCGCCGGAACUACAGAAAUGUAGUUGACGAGGAGGAGGUUUAUCGAAUUUUGGGCGGAUGACUCCAAA | 0.000115 ± 2.4e-05 | – | 0.000136 ± 3.6e-05 | 9.94e-05 ± 2.1e-05 | – | – | –
AUAAAAGCGCCGGAACUACAGAAAUGUAGUUGACGAGGAGGAGGUUUAUCGAAUUUUCGGCGGAUGCGUCCAAA | 3.14e-05 ± 6.3e-06 | – | – | 4.35e-05 ± 1.8e-05 | – | – | –
AUAAAAGCGCCGGAACUACAGAAAUGUAGUUGACGAGGAGGAGGUUUAUCGAAUUUUCGGCGGAUGCAUCCAAA | 2.58e-05 ± 7.3e-06 | – | – | 3.36e-05 ± 9e-06 | 1.95e-05 ± 7.6e-06 | – | –
AUAAAAGCGCCGGACCUACAGAAAUGUAGUUGACGAGGAGGAGGUUUAUCGAAUUUUCGGCGGAUGCCUCCAAA | 0.000514 ± 0.00013 | – | – | 7.79e-05 ± 1e-05 | 0.000205 ± 2.2e-05 | – | –
AUAAAAGCGCCGGAACUACAGAAAUGUAGUUGACGAGGAGGAGGUUUAUCGAUUUUUCGGCGGAUGUCUCCAAA | 0.000372 ± 8.2e-05 | 6.21 ± 2 | – | 0.00011 ± 1.7e-05 | 0.00022 ± 7.2e-05 | – | –
AUAAAAGCGCCGGAACUACAGAAAUGUAGUUGACGAGGAGGAGGUUUAUCGUAUUUUCGGCGGAUGCCUCCAAA | < 1e-05 | – | < 1e-05 | – | – | – | < 1e-05
AUAAAAGCGCCGGAACUACAGAAAUGUAGUUUACGAGGAGGAGGUUUAUCGAAUUUUCGGCGGAUGCCUUCAAA | 0.00103 ± 0.00043 | – | 0.000285 ± 6.9e-05 | 0.000425 ± 9e-05 | 0.00121 ± 0.00019 | 0.000103 ± 1.9e-05 | –
AUAAAAGCGCCGGAACUACAGAAAUGUAGGUGACGAGGAGGAGGUUUAUCGAAUUUUCGGCGGAUGCCUCCAAA | 8.75e-05 ± 7.1e-06 | 1.83 ± 0.51 | – | 5.48e-05 ± 8.9e-06 | 7.28e-05 ± 7.5e-06 | – | < 1e-05
AUAAAAGCGCCGGCACUACAGAAAUGUAGUUGACGAGGAGGAGGUUUAUCGAAUUUUCGGCGGAUGCCUCCAAA | 0.000175 ± 3.9e-06 | 2.97 ± 0.16 | 3.2e-05 ± 7.2e-06 | 7.78e-05 ± 1.1e-05 | 0.000135 ± 1.1e-05 | – | –
AUAAAAGCGCCGGUACUACAGAAAUGUAGUUUACGAGGAGGAGGUUUAUCGAAUUUUCGACGGAUUCCUCCAAA | < 1e-05 | – | – | – | < 1e-05 | – | –
AUAAAAGCGCCGUAACUACAGAAAUGUAGUUGACGAGGAGGAGGUUUAUCGAAUUUUCGGCGGAUGCCUCCAAA | 9.52e-05 ± 1e-06 | 1.02 ± 0.043 | 3.63e-05 ± 8.6e-06 | 6.89e-05 ± 1.1e-05 | 8.62e-05 ± 7.6e-06 | – | –
AUAAAAGCGCCGGAACUACAGAAAUGUAGUUGACGAGGAGGAGGUUUAUCGAAUUUUCGGCGGAUGCCUCAAAA | 0.000639 ± 4.4e-05 | 4.88 ± 0.5 | 7.45e-05 ± 1e-05 | 0.000215 ± 3.9e-05 | 0.00043 ± 5.9e-05 | – | –
AUAAAAGCGCCGGAACUACAGAAAUGUAGUUGACGAGGAUGAGGUUUAUCGAAUUUUCGGCGGAUGCCUCCAAA | 0.000365 ± 1.8e-05 | 3.74 ± 0.35 | 5.37e-05 ± 6.7e-06 | 0.000148 ± 1.3e-05 | 0.000265 ± 1.9e-05 | – | –
AUAAAAGCGCCCGAACUACAGAAAUGUAGUUGACGAGGAGGAGGUUUAUCGAAUUUUCGGCGGACGCCUCCAAA | 0.00043 ± 7.3e-05 | 1.95 ± 0.62 | 0.000102 ± 1.9e-05 | 0.000328 ± 8.4e-05 | 0.000343 ± 6.2e-05 | – | –
AUAAAAGCGCCGGAACUACAGAAAUGUAGUAUACGAGGAGGAGGUUUAUCGAAUUUUCGGCGGAUGCCUCCAAA | 6.44e-05 ± 1.1e-06 | 5.79 ± 0.24 | – | – | 4.08e-05 ± 1.1e-05 | – | –
